# Changes are numbered by the printed parent chain. Like-named read-outs stand apart in the source and are kept apart here. Non-standard residues stand in square brackets, D forms with d. No end group written: not given here. pS = N[C@@H](COP(=O)(O)O)C(=O)O; FAM = fluorescein label
# T1: Aurora‐A R151A (Homo sapiens, UniProt O14965, C290A/C393A/R151A)
# T1 construct: pET30TEV Aurora‐A 122–403 C290A, C393A were produced in a similar manner; made in house
# T1 sequence (O14965 122-403 R151A/C290A/C393A): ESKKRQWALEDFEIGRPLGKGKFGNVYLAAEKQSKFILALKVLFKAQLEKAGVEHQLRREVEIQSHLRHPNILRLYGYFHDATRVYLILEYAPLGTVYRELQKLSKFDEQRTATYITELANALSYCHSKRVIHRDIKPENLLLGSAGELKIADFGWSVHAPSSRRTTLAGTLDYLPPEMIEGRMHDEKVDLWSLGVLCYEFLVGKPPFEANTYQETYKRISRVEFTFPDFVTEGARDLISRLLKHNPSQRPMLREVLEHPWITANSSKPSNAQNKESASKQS
# T2: Aurora‐A (Homo sapiens, UniProt O14965, C290A/C393A)
# T2 construct: pET30TEV Aurora‐A 122–403 C290A, C393A; made in house
# T2 sequence (O14965 122-403 C290A/C393A): T1 sequence (O14965 122-403 R151A/C290A/C393A) with A30R
# T3: CHC 1–574 R481E (UniProt Q00610 1-574, R481E)
# T3 construct: source: expressed and purified as the WT protein (modified pGEX vector; GST cleaved with TEV)
# T3 sequence (looked up): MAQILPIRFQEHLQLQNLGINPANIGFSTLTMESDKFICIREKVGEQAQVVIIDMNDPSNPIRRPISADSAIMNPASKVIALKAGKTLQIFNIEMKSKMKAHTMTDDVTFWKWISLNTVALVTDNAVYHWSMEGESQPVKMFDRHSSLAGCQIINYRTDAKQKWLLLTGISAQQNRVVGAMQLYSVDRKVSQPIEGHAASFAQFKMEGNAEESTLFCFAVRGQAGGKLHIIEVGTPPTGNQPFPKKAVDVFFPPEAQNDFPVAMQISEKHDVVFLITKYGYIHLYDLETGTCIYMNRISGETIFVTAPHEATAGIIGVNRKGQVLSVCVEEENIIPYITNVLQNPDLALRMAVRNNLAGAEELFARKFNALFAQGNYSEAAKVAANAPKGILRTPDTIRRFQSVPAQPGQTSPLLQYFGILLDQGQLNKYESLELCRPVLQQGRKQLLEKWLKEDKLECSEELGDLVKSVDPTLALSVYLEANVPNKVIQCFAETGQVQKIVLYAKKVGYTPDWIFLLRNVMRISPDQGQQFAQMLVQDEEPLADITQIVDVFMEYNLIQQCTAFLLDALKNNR
# T4: CHC 1–574 L480D (UniProt Q00610 1-574, L480D)
# T4 construct: source: expressed and purified as the WT protein (modified pGEX vector; GST cleaved with TEV)
# T4 sequence (looked up): T3 sequence (looked up) with L480D, E481R
# T5: CHC 1–574 L476D, L480D (UniProt Q00610 1-574, L476D | L480D)
# T5 construct: source: expressed and purified as the WT protein (modified pGEX vector; GST cleaved with TEV)
# T5 sequence (looked up): T3 sequence (looked up) with L476D, L480D, E481R
# T6: CHC 1–574 L503A/Y504A (UniProt Q00610 1-574, L503A | Y504A)
# T6 construct: source: expressed and purified as the WT protein (modified pGEX vector; GST cleaved with TEV)
# T6 sequence (looked up): T3 sequence (looked up) with E481R, L503A, Y504A
# B1: FAM‐TACC3 549–570 phosphorylated on S558 (FAM‐phospho‐TACC3^CID) (peptide, UniProt Q9Y6A5 549-570, looked up)
# peptide: {FAM}-FKESALRKQ[pS]LYLKFDPLLRDS
# notes: TACC3, human, aa549–570 (TACC3^CID); also called pTACC3^CID; FAM‐labelled pTACC3^CID; source: FAM‐labelled peptide (FAM‐TACC3 peptides: PPR, Cambridge; Almac, Craigavon)
# Columns and labels:
# Aurora‐A R151A [1] = target: T1, Aurora‐A R151A; test: FP binding assay, Aurora‐A R151A; conditions: fluorescence polarization, Aurora‐A R151A relative to WT Aurora‐A
# Method: The contributions of the site 1 residues to the interaction were quantified using fluorescence polarization spectroscopy (FP) with a set of fluorescein (FAM)‐labelled peptides.
# Binding assays were performed in triplicate. FP signal was fit to a one‐site total binding model in Prism 6 (GraphPad). Results are reported as K d ± SE.
# Aurora‐A [2] = target: T2, Aurora‐A; test: Radioactive 32P‐ATP kinase assay, MBP substrate; type: biochemical; conditions: 0.625 μM phosphorylated Aurora‐A, 5 μM TACC3^N‐ACID, 0.25 mg/ml MBP, 10 min, scintillation counting, duplicate
# Method: (§1) Figure EV2 Biochemical and structural analysis of the Aurora‐A/TACC3 complex • FP assay between FAM‐TACC3 519–570 and Aurora‐A. Reactions were performed in triplicate. Error bars represent standard deviation. […] Error bars represent standard deviation. […] This peptide was based on the location of a sulphate ion, originating from the crystallization solution, at the interface of the Aurora‐A/TACC3 interface in the crystal structure, close to TACC3 T534. […] Myelin basic protein (MBP) was used as a generic kinase substrate. Incorporation of radioisotope was measured by scintillation counting. Reactions were performed in duplicate. Error bars represent standard error. Assays were compared to the WT TACC3^N‐ACIDH6c reaction by one‐way ANOVA with Dunnett's post hoc test. […], **P < 0.01 and ****P < 0.0001. • Multiple sequence alignment of TACC3 (above) and Aurora‐A (below) orthologs spanning the interaction binding interface. Key binding residues are boxed in red. The TACC3 phosphorylation sites, S552 and S558, are boxed in blue. The TACC3 LL motif required for binding to CHC is boxed in green. The TACC3 α‐helix produced on binding to CHC is identified by a black line. TEXT PRINTED IN THE PICTURE: (A) TACC3 519-570: 3.0 ± 0.2 μM | (B) WT: 20 ± 1 μM | (B) R526A: 49 ± 2 μM | (B) phospho-T534: 14 ± 1 μM
# Radioactive ^32P‐ATP kinase assays were performed as described previously (Burgess et al, 2015). In brief, 0.625 μM Aurora‐A^M3KD WT or selected mutant was incubated with 0.25 mg/ml MBP alone and in the presence of 5 μM TACC3^N‐ACID WT or mutant for 10 min. Reactions were terminated by the addition of 2% (v/v) orthophosphoric acid. Samples were spotted onto P81 Whatman paper, washed extensively with 0.2% (v/v) orthophosphoric acid and incorporation of radioisotope measured by scintillation counting.
# Aurora‐A R151A [3] = target: T1, Aurora‐A R151A; test: Radioactive 32P‐ATP kinase assay, MBP substrate, Aurora‐A R151A; type: biochemical; conditions: 0.625 μM Aurora‐A R151A, 5 μM TACC3^N‐ACID, 0.25 mg/ml MBP, 10 min, scintillation counting, duplicate
# Method: as §1, with “The TACC3 α‐helix produced on binding to CHC is identified by a black line. TEXT PRINTED IN THE PICTURE: (A) TACC3 519-570: 3.0 ± 0.2 μM | (B) WT: 20 ± 1 μM | (B) R526A: 49 ± 2 μM | (B) phospho-T534: 14 ± 1 μM” left out
# Radioactive ^32P‐ATP kinase assays were performed as described previously (Burgess et al, 2015). […] Samples were spotted onto P81 Whatman paper, washed extensively with 0.2% (v/v) orthophosphoric acid and incorporation of radioisotope measured by scintillation counting.
# [4] = system: unphosphorylated Aurora‐A KD; test: Autophosphorylation assay of unphosphorylated Aurora‐A KD (Western blot αphospho‐T288); type: biochemical, human; conditions: unphosphorylated Aurora‐A 122–403, 1 h, room temperature
# Source text: (§2) Figure 2 TACC3 523–534 forms a docking interaction on the N‐lobe of Aurora‐A • Magnified view of the site 1 interaction. • Schematic showing the key features of the TACC3/Aurora‐A interface. • FP assays of binding between site 1 of TACC3 and Aurora‐A. The sequence of TACC3 present in the complex crystal structure is shown (top) with the residues of the site 1 FP peptide coloured orange and mutated residues identified by coloured circles corresponding to the curves shown in the FP assay (below). Data represent mean of three experiments ± SD. […] Data represent mean of three experiments ± SD. […] Reactions were analysed by SDS–PAGE (above) and Western blotting with an αphospho‐T288 Aurora‐A antibody (below). […] They are listed as printed.
# (§3) Autophosphorylation assays were performed as for radioactive ^32P‐ATP reactions using Aurora‐A 122–403 co‐expressed with lambda phosphatase for 1 h at room temperature with His‐Aurora‐A D274N as a substrate in replace of MBP. Reactions were resolved by SDS–PAGE and subject to Western blotting using an α‐phospho‐T288 Aurora‐A antibody (CST 2914, 1:2,000) as per the manufacturer's recommendation.
# [5] = system: Aurora‐A KD (substrate: Aurora‐A D274N); test: Substrate phosphorylation of kinase‐dead Aurora‐A D274N by Aurora‐A KD (Western blot αphospho‐T288); type: biochemical, human; conditions: Aurora‐A D274N as substrate, 1 h, room temperature
# Source text: as §2, §3
# Aurora‐A [6] = target: T2, Aurora‐A; parameters: method as in Burgess et al, 2015; conditions: ref Burgess et al, 2015, cited from earlier work
# CHC 1–574 R481E = target: T3, CHC 1–574 R481E; test: fluorescence polarisation; CHC proteins serially diluted in 20 mM HEPES–NaOH pH 7.5, 200 mM NaCl, 5 mM DTT; 50 nM FAM‐labelled TACC3 peptide; 30 min at room temperature; read at 25°C; conditions: both partners purified
# CHC 1–574 L480D = target: T4, CHC 1–574 L480D; test: as above; conditions: both partners purified
# CHC 1–574 L476D, L480D = target: T5, CHC 1–574 L476D, L480D; test: as above; conditions: both partners purified
# CHC 1–574 L503A/Y504A = target: T6, CHC 1–574 L503A/Y504A; test: as above; conditions: both partners purified
molecule,measurement,setting,value
CC(C)C[C@H](NC(=O)[C@@H](NC(=O)[C@H](CCC(=O)O)NC(=O)[C@H](C)NC(=O)[C@@H]1CCCN1C(=O)[C@H](CC(=O)O)NC(=O)[C@H](CCCNC(=N)N)NC(=O)[C@H](Cc1ccccc1)NC(=O)[C@H](CO)NC(=O)[C@H](CCC(=O)O)NC(=O)[C@H](CCC(=O)O)NC(=O)c1ccc2c(c1)C(=O)OC21c2ccc(O)cc2Oc2cc(O)ccc21)C(C)C)C(=O)NCC(=O)N[C@H](C(=O)NCC(=O)N[C@@H](C)C(=O)O)[C@@H](C)O [FAM‐TACC3 522–536],reduced affinity,Aurora‐A R151A [1],40 fold
"TACC3^N‐ACID: N-terminal fragment of the Aurora-A and CHC interaction domain of TACC3, aa519–563 (ELKEESFRDPAEVLGTGAEVDYLEQFGTSSFKESALRKQSLYLKF; not fully specified)",stimulation of Aurora‐A activity,Aurora‐A [2],eightfold
same,stimulation of Aurora‐A R151A activity by TACC3,Aurora‐A R151A [3],reduced stimulation
same,Aurora‐A autophosphorylation on T288,[4],stimulated
same,substrate phosphorylation on T288 (Aurora‐A D274N),[5],stimulated
same,Kd,"Aurora‐A [6]; microscale thermophoresis and NMR, read-out: K d measured by MST and NMR",6 to 8 µM
same,Kd,"Aurora‐A [6]; previous data, effect of F525A mutation, read-out: K d of the interaction",5.7 µM
B1,Kd,CHC 1–574 R481E,> 300 µM
same,Kd,CHC 1–574 L480D,> 300 µM
same,Kd,"CHC 1–574 L476D, L480D",> 300 µM
same,Kd,CHC 1–574 L503A/Y504A,> 300 µM

# — PMC5897774, “Mitotic spindle association of TACC3 requires Aurora‐A‐dependent stabilization of a cryptic α‐helix” (The EMBO Journal, 2018)
